Tested on: MS2 coat protein
Assay: apparent KD of MS2 coat protein; designed switch direction (-1 OFF switch, 1 ON switch): -1; higher = weaker reporter binding
Method in brief: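 For each design, the apparent KD is the median over clusters of curves fitted to normalised cluster fluorescence. Clusters held RNA switches with common flanks, transcribed on Illumina chips by stalled E. coli RNA polymerase. These were titrated with SNAP-549-labelled MS2 coat protein, doubling from 0.7 or 1.5 nM to 3 µM, without input, with 200 uM small-molecule ligand, or with an oligonucleotide input.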

[1] = Eterna round: R95, input ligand: FMN 200 uM
[2] = Eterna round: R95, input ligand: microRNA oligo, concentration not stated
[3] = Eterna round: R95, input ligand: none
[4] = input ligand: microRNA oligo, concentration not stated

Sequence	apparent KD of MS2 coat protein [1] [nM]	apparent KD of MS2 coat protein [2] [nM]	apparent KD of MS2 coat protein [3] [nM]	apparent KD of MS2 coat protein (input ligand: FMN 200 uM) [nM]	apparent KD of MS2 coat protein (input ligand: none) [nM]	apparent KD of MS2 coat protein [4] [nM]
AGUACUAACACGAAAGUGUUAGUACAAUAAGCUUGUGAAACAUGAGGAUCACCCAUGUCCUCAUAUGCUCGUCUUAU [salish99_TOv2_r3_053] (puzzle: Sensor v3, turn-off variant 2)	471	822	641	–	–	–
UUAUUAAGUGUGAGGAUAUGCUGGUCCUUGGAUCAGCAGAAGGCACAUGAGGAUCACCCAUGUACUUUAUUUUA [JL bmx4 3.04] (puzzle: Brourd's mod of Exclusion 4)	–	15.5	–	–	–	–
AAUUUACAUGAGGAUCACCCAUGUGAGGAUAUAUACAAAGAAGUGUUAGUAAGAAUGUAUAGAAGGCGCGUGAU [JR_Exc1_Sub040] (Eterna round: R97, puzzle: Exclusion 1)	–	–	–	71.4	58.6	–
CGAAGUAGAAACCGAUCCUACAUGAGGAUCACCCAUGUAGCAAGACGUGCACGCGAAGCUCGUCAGACUACCAGAAG [salish99_TOv1_r3_004] (puzzle: Sensor v3, turn-off variant 1)	343	352	332	–	–	–
UAAUAGAUGGUUAGGAUAUGCUGGCCUAGGCCGCGGCAGAAGGAACAUGAGGAUCACCCAUGUAGUAGGAUCCA [Eternabot (L2) Solution 15] (Eterna round: R97, puzzle: Brourd's mod of Exclusion 4)	–	–	–	204	98.6	–
AUCAUGUAAGGAUAUCUUACAUGUAUCGAAAGAUACAGUUAAGAGAAGGUACAUGAGGAUCACCCAUGUAUAAC [Ex4-3: 35] (puzzle: Exclusion 4)	–	25.2	–	–	–	–
AGCUGUGGCCGAGGAUAUUACGAACCAUGGAAAACCAUGGAAACUCUACAUGAGGAUCACCCAUGUAAGAAGGCGGUCUCAGCA [Eli eng2 - 024] (Eterna round: R96, puzzle: Exclusion NG 2)	–	–	–	47.5	16.4	11.7
CUAGCGGAUGUAGGAUAUCGGACUGUUUCAGUCUGAGAAGGACAUGAGGAUCACCCAUGUAUUGCUGCGUGAGUAGCACGCUAG [JL ENG1 3.97] (Eterna round: R96, puzzle: Exclusion NG 1)	–	–	–	–	–	17.4
CAUGAUCUUCGGAUCAUGUACAUGAGGAUCACCCAUGUUACGAGUUGAUUUUCAUACAAGCUUUUUGCUCGUCUUAU [Sensor v3 - Turn-off variant 1 - 27] (puzzle: Sensor v3, turn-off variant 1)	226	330	240	–	–	–
AUCAUGAUAGGAUAUACAUGAGGAUCACCCAUGUCCCACCCGUUACUUCUGGCCCUUUGUAGAAGGAUCGUCAA [Exy#21] (Eterna round: R97, puzzle: Exclusion 3)	–	–	–	22.2	26.8	–
UUUGUUUAUGUAGGAUAUGCCUGGCGUGCCUUUGCAGAAGGACAUGAGGAUCACCCAUGUAUUGCGGUCUGCGUUCAGAUCGCA [salish99_ExNG1_r4_038] (Eterna round: R96, puzzle: Exclusion NG 1)	–	–	–	43.2	29.4	30.2
AUAAAGCAAGCAUGAUCCCACAUGAGGAUCACCCAUGUGUUCGUCUUAUAGGCUGCUGAGGCUUUUGCCUCGGUGGC [LRO Sensor-off var1-06 loose mod of D91 from Mat747] (Eterna round: R97, puzzle: Sensor, turn-off variant 1)	–	–	–	69	67.9	–
AGGAGUGAAGGAUAUACAUGAGGAUCACCCAUGUGGGAGGAAAGAGGUGAUGGAGAUAGUAGAAGGUCAGGAUG [JR_Exclusion3_Sub005] (puzzle: Exclusion 3)	99.9	93.9	116	–	–	–
UUAAAUCAUGUAGGAUAUGCGUGGCGAAGCUAUGCAGAAGGACAUGAGGAUCACCCAUGUUCUUGCGUCUGCGUACAGAUGCAA [JL ENG1 1.09] (Eterna round: R96, puzzle: Exclusion NG 1)	–	–	–	118	37.2	26
GCUAGGCAUGUCAGGAUAUGCUGUACCUUGGUACAGCAGAAGGGACAUGAGGAUCACCCAUGUGCCAACCUAGC [JL-BMX4-4.02] (Eterna round: R97, puzzle: Brourd's mod of Exclusion 4)	–	–	–	736	55.9	–
GAUCCACAUGAGGAUCACCCAUGUGAGGAUAUGAUACUAUGUACUUCGGUACAUAGUAUCAGAAGGCACAGGUC [Ex1-3: 56] (Eterna round: R96, puzzle: Exclusion 1)	–	–	–	333	52.9	50.7
AUAGUGUGAGGAUAUCGGACCAGUCCAGUUAGGAGCAGGAUCGAGAAGGUACAUGAGGAUCACCCAUGUGACCA [Eternabot (L2) Solution 8] (Eterna round: R97, puzzle: Exclusion 4)	–	–	–	30.8	16.8	–

Sequence	apparent KD of MS2 coat protein [1] [nM]	apparent KD of MS2 coat protein [2] [nM]	apparent KD of MS2 coat protein [3] [nM]	apparent KD of MS2 coat protein (input ligand: FMN 200 uM) [nM]	apparent KD of MS2 coat protein (input ligand: none) [nM]	apparent KD of MS2 coat protein [4] [nM]
GACUUCUGAGGAUAUACAUAGAUUUACAUGAGGAUCACCCAUGUUCCUCUAUGUAUAAAUGUAGAAGGCAGAAGAG [Mat - Exclusion 5 - JL Mod - D65] (Eterna round: R97, puzzle: Exclusion 5)	–	–	–	70.7	19.7	–
UUUAAAACAUAGGAUAUCGAAUAAAUCAUUUAACGAGAAGGAUGAACAUGAGGAUCACCCAUGUGGUAUCAUGG [Mat - Exclusion 6 - JL Mod - D20] (puzzle: Exclusion 6)	219	183	207	–	–	–
ACAUGAGGAUCACCCAUGUUCGGCUGGUCCGUUUCGGCUGUCGAGGAUAUAGUUCGGUGUCCGCGCUAGAAGGCGGGAGCUGGC [Aenatbe mod 64] (Eterna round: R96, puzzle: Exclusion NG 3)	–	–	–	167	68.5	39
GACCAGGCAGGAUAUACAUGAGGAUCACCCAUGUGUCUGCGUUGGGCACGUGAACACGGUAGAAGGGCCUUGAC [ChP 13.04.2015 #15] (puzzle: Exclusion 3)	–	12.8	–	–	–	–
GAGACACAUGAGGAUCACCCAUGUGAGGAUAUGCGAAGGACCAAAUUAAGAAUUAAAGGCAGAAGGCACAUAAA [Exclusion 1 V4] (puzzle: Exclusion 1)	36.8	35.5	29.3	–	–	–
CGUGCGUAUGUGAGGAUAUGCUGGUCCUUGGAUCAGCAGAAGGCACAUGAGGAUCACCCAUGUGGUGUCGUACU [salish99_Bmod_Ex4_017] (puzzle: Brourd's mod of Exclusion 4)	–	161	–	–	–	–
AGGAGUAGUAAGGAUAUAGCGGACUAGUCGUCGUUAGAAGGUACUACAUGAGGAUCACCCAUGUUGACCUGAGC [EX6 B.14] (Eterna round: R97, puzzle: Exclusion 6)	–	–	–	46.5	19.6	–
GGUGCGUUUGUGAGGAUAUGCUGGUCCUUGGAUCAGCAGAAGGCACAUGAGGAUCACCCAUGUGGUGUCGUUCC [salish99_Bmod_Ex4_037] (puzzle: Brourd's mod of Exclusion 4)	–	137	–	–	–	–
GAUCAUGCAGGAUAUACAGUUUCCAUGAUAACAUGGUCCUCACAUGAGGAUCACCCAUGUAGAAGGGCAUGAUC [Omei Ex2 A29] (Eterna round: R97, puzzle: Exclusion 2)	–	–	–	258	1080	–
CAUACGGCAGGAUAUGCGUGGCCAUCUUAGCUCUACCUAAGACAUGAGGAUCACCCAUGUAGAAGGGUUACAUA [Eternabot (Original) Solution 41] (Eterna round: R97, puzzle: Exclusion 2)	–	–	–	20.5	19.8	–
CUAAUUCGAGGAUAUGCAAUGGAGUCUUUAAUAUAGUUCUCACAUGAGGAUCACCCAUGUAGAAGGCGAGCGGG [Eternabot (L1) Solution 50] (Eterna round: R97, puzzle: Exclusion 2)	–	–	–	115	53.1	–
GACAGUCGAGGAUAUACGAUCGUGCUUCGGCACGUAAGAUCACAUGAGGAUCACCCAUGUAGAAGGCGACUGUC [Mod 6 - Jieux - Exclusion 2] (Eterna round: R97, puzzle: Exclusion 2)	–	–	–	234	31.7	–
GGUGCGUAUGUGAGGAUAUGCUGGUCCUUGGAUCGGCAGAAGGCACAUGAGGAUCACCCAUGUGGUGUCGUACA [salish99_Bmod_ex4_087] (puzzle: Brourd's mod of Exclusion 4)	–	232	–	–	–	–
AGCUAGUCAGGAUAUACGAACACCUCAAAAGAGGUGAAGGGACAUGAGGAUCACCCAUGUAGAAGGGACUAGCA [Mat - Exclusion 2 - JL mod - D29] (Eterna round: R96, puzzle: Exclusion 2)	–	–	–	167	24.3	21.3
UGGCUUAGAGGAUAUACAUUGAAUAAGAUUCAUGUAAAACUACAUGAGGAUCACCCAUGUAGAAGGCUAGGCCU [Mat - Exclusion 2 - JL Mod - D73] (Eterna round: R97, puzzle: Exclusion 2)	–	–	–	32.7	17.9	–
CUUGUUUAUGUAGGAUAUGCCUGGCGUGCCUUUGCAGAAGGACAUGAGGAUCACCCAUGUAUUGCGGUCUGCGUUCAGAUCGCU [salish99_ExNG1_r4_044] (Eterna round: R96, puzzle: Exclusion NG 1)	–	–	–	41.1	36.6	28.8
CACCGUUACAGAGGAUAUGGUACAUGAGGAUCACCCAUGUAAUAAAUGAGAAUUUCGAAUGUAAUCCAGAAGGCUGGAAUCGGC [Ostricism 74 - Jieux - Exclusion NG 2] (Eterna round: R96, puzzle: Exclusion NG 2)	–	–	–	228	96.3	85.2

Reference: the supplement of paper PMC9170038
